Target: SHP2^WT-TurboID (UniProt Q06124)

PD-1 pY248 phosphopeptide
in vitro phosphatase activity (initial velocity, RFU/s, DiFMUP substrate): +PD-1 pY248 over basal activity: 10 fold

Reference: doi:10.1101/2025.02.26.640373
